Assay results taken from patent US20160052996A1.

B1: NI-307.18E12 (antibody, V domains shown)
VH: QVQLQQWGAGLLKPSETLSLTCAVYGDSFSGFFWAWIRQTPGTGLEWIGEIQHGGSPTYNPSFESRLTISTDASKSQVSLKMTSVTVTDTAIYYCARCIRGKYGSGSLQLWSQGTLVTVSS
VL: DIQLTQSPSFLSASVGDRVTITCRASQDINYHLAWYRQKPGKAPDLLIHSAHTLHIGVSSRFSGSGSGTEFTLTIHTLQPEDFATYYCHQPKTFPPTFGGGTKVDIK
B2: NI-307.5H3 (antibody, V domains shown)
VH: QVQLQESGPGLLKPLGTLSLICDVSGDSISSSNWWSWVRQSPRKGLEWIGEIYHSGRTNYNPSLTNRVTISVDKSKNQFSLNLNSVTAADTGVYYCARWDYYYNNDYYIRGFDIWGQGTMVTVSS
VL: EIVLTQSPGILSLSPGERATLSCRASQSVDSNYLAWYQQKPGQAPRLLIYSTSTRAAGVPDRFSGSGSGTDFALTISGLEPEDFAVYYCQQWGGSPPITFGQGTRLEIK
B3: NI-307.6A2 (antibody, V domains shown)
VH: QVQLQESGPGLVKPSETLSLTCAVSGGSVSSSYWYSWVRQLPGKGLEWIGEIFHTGDTNYNPSLESRVTISIDTSKNQLSLDVTSATAADTAVYYCARDYCTDSGCDSDALDVWGHGTMVTVSS
VL: QSALTQPASVSGSPGQSITISCTGTTKDVGNYNLVSWYQQHPGKAPRLVIYEVSERPSGVSNRFSGSKSGNTASLTISGLQAEDEADYHCCSYAGSGTSVFGGGTKVTVL
B4: NI-307.25G10 (antibody, V domains shown)
VH: EVQLVESGGGLVQPGGSLRLSCVASGIIFKDYDFHWVRQVKEKGLEWVSAIGTAGDPYYAASVKGRFTVSRENGKNSVYLRMNNVGAGDTALYYCTSGNYFDRGSFRPSAFDMWGQGTMVTVSS
VL: EIVLTQSPGTLSLSPGERATLSCWASQSVSSNYLAWYQHKPGQAPRLLIFRASRRATDIPERFSAGGSGTDFTLTISRLEAEDSAVYYCQEYGSAPPASITFGQGTRLEIK
B5: NI-307.19F10 (antibody, V domains shown)
VH: EVQLVESGGGLVQPGGSVSLSCAASGFTFPVYWMHWVRQAPEKGLMWVSRISPDGTIVDYAGSVKGRFTVSRDNAKNILYLQIQRLTAEDTAVYFCTKDFDVASGFWGQGTLVTVSS
VL: QSALTQPPSASGSPGQSVTISCTGSKSDVGTCHFVSWYQQHPGKVPKLVIYEGNKRPSGVPDRFSASKSGNTASLTISGLQPGDEADYYCSTCAGPNNYVFGTGTKVTVL
B6: NI-307.57D5 (antibody, V domains shown)
VH: EVQLVESGGGLAQPGGSLRLSCAGSGFTLSDFAMSWVRRAPGKGLEWVSSLTPSGRNSFYSDSVKGRFTISRDNWKNTLYLEMNLLRPEDTAVYYCARPGAPKNSDSKYSYVRVDFQHWGQGTLVTVSS
VL: NFMLTQPHSVSESPGRTVTISCTRSSGSIANNFVQWYQHRPGSAPTTLIYEDDQRPSGVPDRFSGSVDSFSNSASLTISGLKTEDEADYFCQSYDNHNWVFGGGTTLTVL
B7: NI-307.1E1 (antibody, V domains shown)
VH: EVQLVESGGGLVKPGGSLRLSCAASGFIFSDAWMNWVRQAPGKGLEWVGHIKSRPAGGTTEYAAPVKGRFTISRDDSTDTLYLQMNNLKAEDTAVYYCSTGHYGVYGLGTLVTVSS
VL: DIQMTQSPSTLSASVGDRVTITCRASQSIRDYLAWYQQKPGKAPKLLIYDGSILEGGVPSRFSGSVSGTDFTLTISSLQSDDFATYYCQQYTSYSSWTFGQGTKVEIK
B8: NI-307.43A11 (antibody, V domains shown)
VH: QVQLQESGPGLVKPSGTLSLTCAVTGGSISSSNWWSWVRQSPGKGLEWIGEIHHDGNLNYNPLLKSRVSMSLDRSKNQFSLKLTSVTAADTAVYYCARWDFFFDSSYYIRGFDLWGQGTMVTVSS
VL: ETTLTQSPGTLSLSPGERVTLSCRASQSVDRNYLAWYQQKPGQSPRLLIYSASRRATGIPDRFSGSGSGTDFTLTISRLEPEDFVVYYCQQYGGSPPITFGQGTRLEIK
B9: NI-307.24F3 (antibody, V domains shown)
VH: QVQLQESGGGVVQPGRSLRLSCAASGFSFNRYGMHWVRQAPGKGLEWLAVISNDGVNTHYADSVKGRFTISRDNSKSTLYLQASSLRVEDTAVYYCAGYYYGSGTSLFFYWGQGTLVTVSS
VL: EIVLTQSPDSLAVSLGERATINCKSSQTVLYSSNNQNYLAWYQQKPGQPPKLLLYWASTRESGVPDRFSGSGSGTDFTLTISSLQPEDVAVYYCQQYYTAPYTFGQGTKVEIK
B10: NI-307.3G4 (antibody, V domains shown)
VH: QVQLVQSGAELKKPGAAVKVSCQASGYNFLSYGINWVRQIPGQGLQWLGWISTYDGTMNYDQKPDNRVTVTTDTSSSTVYLELRGLRSDDTGVYYCVRDRCAGAGCSHSLGYWGQGTLVTVSS
VL: DIQMTQSPSALSASVGDRVTISCRASQNINTQLNWYQEKPGKAPELLIYGAFNLQSGAPSTFSGSGSGTDFTLTITSLQPEDFASYYCQQGFHAPYTFGRGTKVDIK
B11: NI-307.24C6 (antibody, V domains shown)
VH: QLQLQESGPGLVKPSGTLSLICVVSGSSIRSNIWWWNWVRQSPGKGLEWIGEIYHSGSTNYSPSLKSRVTMSVDNSKNQFSLKMSSVTAADTAVYFCAINTRTSISGVLYDTFDVWGQGTMVTVSS
VL: EIVLTQSPATLSLSSGERATLSCRASQSVSGYLAWYQQKPGQAPRLLIYDGSNRATGIPARFSGSGSGTDFTLTISSLEPEDFAVYYCQHRSNWPMYTFGQGTKLEIK
B12: NI-307.43E8 (antibody, V domains shown)
VH: EVQLVESGGDVVQPGRSLRLSCAASGFAFSIYAMNWVRQAPGKGLEWVALISTSGTEHYADSVKGRFTISRDNSKNTLFLQINSLRVEDTAVYYCARDLDSTGYYENNYWGQGTLVTVSS
VL: DVVMTQSPLSSPVSLGQPASISCRSSHSLVHSNGDTYLSWLQQRPGQPPRLLIYKISNRFSGVPDRFSGSGAGTDFTLKISRVEAEDVGVYFCMQATSFPRTFGQGTKVEIK
B13: NI-307.78C3 (antibody, V domains shown)
VH: QVQLQESGPGLVKPSGTLSLTCTVSGGSISGRIWWSWVRQPPGKGLEWIGEIYHSGSTNYSPSLRGRVTISVDTSKQHFSLKMTSVTAADTAMYYCVRGELALGFDSWGQGTLVTVSS
VL: QSALTQPPSASGSPGQSVTISCTGTSSDVGGYNSVSWYQQHPRRAPKLMIYEVSKRPSGVPDRFSGSKSGNTASLTVSGLQADDEAHYYCSSYAGSNNLVFGGGTMLTVL
B14: NI-307.26E10 (antibody, V domains shown)
VH: EVQLVESGGGLVLPGGSLRLSCAVSGFTVRNEYMRWARQAPGRGLEWVSVIYRDGQTHHADTVKGRFDVSKDTSKNTMYLQMHNLRVDDTAIYYCARGHYGPWGQGTLVTVSS
VL: DIQMTQSPSTLPASVGDRVTITCRASQSINNWLAWYQQKPGKAPNLLIYDASNLETGVPSRFSGSGSGTEFTLTISSLQPDDFATYYCQQYNSHSHTWTFGQGTKVEIK

What was measured:
[1] = biological target: BKV VP1 (BK virus (BKV), AS strain) (UniProt P14996); assay: direct ELISA, plate coated with antigen at 5 µg/ml in carbonate buffer; EC50 by non-linear regression (GraphPad Prism)
[2] = biological target: BKV VP1 VLP (BK virus (BKV), AS strain) (UniProt P14996); assay: direct ELISA, plate coated with antigen at 5 µg/ml in reassociation buffer (VLP); EC50 by non-linear regression (GraphPad Prism)
[3] = biological target: BKV VP1 (BK virus (BKV), AS strain) (UniProt P14996); assay: direct ELISA
[4] = biological target: BKV VP1 VLP (BK virus (BKV), AS strain) (UniProt P14996); assay: direct ELISA
[5] = biological target: JCV VP1 VLP (JC virus (JCV), Mad-1 strain) (UniProt P03089); assay: direct ELISA
Sequence of JCV VP1 VLP (JC virus (JCV), Mad-1 strain) (P03089 whole entry): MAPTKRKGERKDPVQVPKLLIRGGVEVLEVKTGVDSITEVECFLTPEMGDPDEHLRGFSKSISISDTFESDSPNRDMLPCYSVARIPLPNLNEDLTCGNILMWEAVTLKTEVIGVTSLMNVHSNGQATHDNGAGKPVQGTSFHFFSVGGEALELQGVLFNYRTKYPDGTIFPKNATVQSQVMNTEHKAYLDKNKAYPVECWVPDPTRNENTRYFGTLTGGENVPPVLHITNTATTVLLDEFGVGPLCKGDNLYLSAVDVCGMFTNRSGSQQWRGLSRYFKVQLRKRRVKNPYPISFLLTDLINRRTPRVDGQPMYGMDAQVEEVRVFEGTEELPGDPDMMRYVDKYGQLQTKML

Sequence of BKV VP1 VLP (BK virus (BKV), AS strain) (P14996 whole entry): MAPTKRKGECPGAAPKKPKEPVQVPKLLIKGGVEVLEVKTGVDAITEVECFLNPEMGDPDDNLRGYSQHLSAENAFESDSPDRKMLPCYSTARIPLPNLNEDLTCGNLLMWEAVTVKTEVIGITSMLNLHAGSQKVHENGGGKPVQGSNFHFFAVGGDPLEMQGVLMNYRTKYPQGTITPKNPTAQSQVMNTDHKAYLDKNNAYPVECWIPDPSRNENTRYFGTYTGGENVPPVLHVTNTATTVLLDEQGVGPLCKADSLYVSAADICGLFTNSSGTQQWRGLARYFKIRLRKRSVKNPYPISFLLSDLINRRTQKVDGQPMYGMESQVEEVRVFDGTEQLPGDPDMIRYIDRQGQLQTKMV
Sequence of BKV VP1 (BK virus (BKV), AS strain) (P14996 whole entry): as above

Binder | EC50 [1] [nM] | EC50 [2] [nM] | EC50 [3] [nM] | EC50 [4] [nM] | EC50 [5] [nM]
B1 | 61.5 | 111 | – | – | –
B2 | – | – | 0.362 | 0.288 | –
B3 | – | – | 1.79 | 1.17 | –
B4 | – | – | 0.514 | 0.172 | –
B5 | – | – | 2.41 | 1.1 | –
B6 | – | – | 37.5 | 104 | –
B7 | – | – | 6.05 | 11 | 281
B8 | – | – | 9.7 | 10 | –
B9 | – | – | 1.04 | 28.8 | –
B10 | – | – | 27.4 | 16.4 | –
B11 | – | – | 0.816 | 0.396 | –
B12 | 0.34 | 0.38 | – | – | –
B13 | – | – | 1.96 | 0.939 | –
B14 | – | – | 1.35 | 0.74 | –
